Measured values: the supplement of paper PMC12458215
± gives the uncertainty stated by the source.

Tested on: HEK293T
Test: plasma membrane surface immunostaining intensity (anti-HA, deep receptor scanning) (arbitrary fluorescence units); higher = higher plasma membrane expression

MNPTDIADTTLDESIYSNYYLYESIPKPCTKEGIKAFGELFLPPLYSLVFVFGLLGNSVVVLVLFKYKRLRSMTDVYLLNLAISDLLFVFSLPFWGYYAADQWVFGLGLCKMISWMYLVGFYSGIFFVMLMSIDRYLAIVHAVFSLRARTLTYGVITSLATWSVAVFASLPGFLFSTCYTERNHTYCKTKYSLNSTTWKVLSSLEINILGLVIPLGIMLFCYSMIIRTLQHCKNEKKNKAVKMIFAVVVLFLGFWTPYNIVLFLETLVELEVLQDCTFERYLDYAIQATETLAFVHCCLNPIIYFFLGEKFRKYILQLFKTCRGLFVLCQYCGLLQIYSADTPSSSYTQSTMDHDLHDAL [CCR4]
plasma membrane surface immunostaining intensity (GPCR class: A): 186 ± 14

MNSENLTRAAVAPAEFVLLGITNRWDLRVALFLTCLPVYLVSLLGNMGMALLIRMDARLHTPMYFFLANLSLLDACYSSAIGPKMLVDLLLPRATIPYTACALQMFVFAGLADTECCLLAAMAYDRYVAIRNPLLYTTAMSQRLCLALLGASGLGGAVSAFVHTTLTFRLSFCRSRKINSFFCDIPPLLAISCSDTSLNELLLFAICGFIQTATVLAITVSYGFIAGAVIHMRSVEGSRRAASTGGSHLTAVAMMYGTLIFMYLRPSSSYALDTDKMASVFYTLVIPSLNPLIYSLRNKEVKEALRQTWSRFHCPGQGSQ [OR5C1]
plasma membrane surface immunostaining intensity (GPCR class: A (Olfactory)): 177 ± 14

MNTSAPPAVSPNITVLAPGKGPWQVAFIGITTGLLSLATVTGNLLVLISFKVNTELKTVNNYFLLSLACADLIIGTFSMNLYTTYLLMGHWALGTLACDLWLALDYVASNASVMNLLLISFDRYFSVTRPLSYRAKRTPRRAALMIGLAWLVSFVLWAPAILFWQYLVGERTVLAGQCYIQFLSQPIITFGTAMAAFYLPVTVMCTLYWRIYRETENRARELAALQGSETPGKGGGSSSSSERSQPGAEGSPETPPGRCCRCCRAPRLLQAYSWKEEEEEDEGSMESLTSSEGEEPGSEVVIKMPMVDPEAQAPTKQPPRSSPNTVKRPTKKGRDRAGKGQKPRGKEQLAKRKTFSLVKEKKAARTLSAILLAFILTWTPYNIMVLVSTFCKDCVPETLWELGYWLCYVNSTINPMCYALCNKAFRDTFRLLLLCRWDKRRWRKIPKRPGSVHRTPSRQC [CHRM1]
plasma membrane surface immunostaining intensity (GPCR class: A): 2530 ± 130

MNVSGCPGAGNASQAGGGGGWHPEAVIVPLLFALIFLVGTVGNTLVLAVLLRGGQAVSTTNLFILNLGVADLCFILCCVPFQATIYTLDGWVFGSLLCKAVHFLIFLTMHASSFTLAAVSLDRYLAIRYPLHSRELRTPRNALAAIGLIWGLSLLFSGPYLSYYRQSQLANLTVCHPAWSAPRRRAMDICTFVFSYLLPVLVLGLTYARTLRYLWRAVDPVAAGSGARRAKRKVTRMILIVAALFCLCWMPHHALILCVWFGQFPLTRATYALRILSHLVSYANSCVNPIVYALVSKHFRKGFRTICAGLLGRAPGRASGRVCAAARGTHSGSVLERESSDLLHMSEAAGALRPCPGASQPCILEPCPGPSWQGPKAGDSILTVDVA [GALR2]
plasma membrane surface immunostaining intensity (GPCR class: A): 2060 ± 420

MNYPLTLEMDLENLEDLFWELDRLDNYNDTSLVENHLCPATEGPLMASFKAVFVPVAYSLIFLLGVIGNVLVLVILERHRQTRSSTETFLFHLAVADLLLVFILPFAVAEGSVGWVLGTFLCKTVIALHKVNFYCSSLLLACIAVDRYLAIVHAVHAYRHRRLLSIHITCGTIWLVGFLLALPEILFAKVSQGHHNNSLPRCTFSQENQAETHAWFTSRFLYHVAGFLLPMLVMGWCYVGVVHRLRQAQRRPQRQKAVRVAILVTSIFFLCWSPYHIVIFLDTLARLKAVDNTCKLNGSLPVAITMCEFLGLAHCCLNPMLYTFAGVKFRSDLSRLLTKLGCTGPASLCQLFPSWRRSSLSESENATSLTTF [CXCR5]
plasma membrane surface immunostaining intensity (GPCR class: A): 630 ± 74

MPANFTEGSFDSSGTGQTLDSSPVACTETVTFTEVVEGKEWGSFYYSFKTEQLITLWVLFVFTIVGNSVVLFSTWRRKKKSRMTFFVTQLAITDSFTGLVNILTDINWRFTGDFTAPDLVCRVVRYLQVVLLYASTYVLVSLSIDRYHAIVYPMKFLQGEKQARVLIVIAWSLSFLFSIPTLIIFGKRTLSNGEVQCWALWPDDSYWTPYMTIVAFLVYFIPLTIISIMYGIVIRTIWIKSKTYETVISNCSDGKLCSSYNRGLISKAKIKAIKYSIIIILAFICCWSPYFLFDILDNFNLLPDTQERFYASVIIQNLPALNSAINPLIYCVFSSSISFPCREQRSQDSRMTFRERTERHEMQILSKPEFI [NPSR1]
plasma membrane surface immunostaining intensity (GPCR class: A): 457 ± 42

MPIMGSSVYITVELAIAVLAILGNVLVCWAVWLNSNLQNVTNYFVVSLAAADIAVGVLAIPFAITISTGFCAACHGCLFIACFVLVLTQSSIFSLLAIAIDRYIAIRIPLRYNGLVTGTRAKGIIAICWVLSFAIGLTPMLGWNNCGQPKEGKNHSQGCGEGQVACLFEDVVPMNYMVYFNFFACVLVPLLLMLGVYLRIFLAARRQLKQMESQPLPGERARSTLQKEVHAAKSLAIIVGLFALCWLPLHIINCFTFFCPDCSHAPLWLMYLAIVLSHTNSVVNPFIYAYRIREFRQTFRKIIRSHVLRQQEPFKAAGTSARVLAAHGSDGEQVSLRLNGHPPGVWANGSAPHPERRPNGYALGLVSGGSAQESQGNTGLPDVELLSHELKGVCPEPPGLDDPLAQDGAGVS [ADORA2A]
plasma membrane surface immunostaining intensity (GPCR class: A): 5780 ± 120

MPKLNSTFVTEFLFEGFSSFRRQHKLVFFVVFLTLYLLTLSGNVIIMTIIRLDHHLHTPMYFFLCMLSISETCYTVAIIPHMLSGLLNPHQPIATQSCATQLFFYLTFGINNCFLLTVMGYDRYVAICNPLRYSVIMGKRACIQLASGSLGIGLGMAIVQVTSVFGLPFCDAFVISHFFCDVRHLLKLACTDTTVNEIINFVVSVCVLVLPMGLVFISYVLIISTILKIASAEGQKKAFATCASHLTVVIIHYGCASIIYLKPKSQSSLGQDRLISVTYTHHSPTEPCCVQPEEQGGQRCSAQSRGAKNSVSLMKRGCEGFSFAFINMY [OR10J3]
plasma membrane surface immunostaining intensity (GPCR class: A (Olfactory)): 164 ± 60

MPNFTDVTEFTLLGLTCRQELQVLFFVVFLAVYMITLLGNIGMIILISISPQLQSPMYFFLSHLSFADVCFSSNVTPKMLENLLSETKTISYVGCLVQCYFFIAVVHVEVYILAVMAFDRYMAGCNPLLYGSKMSRTVCVRLISVPYVYGFSVSLICTLWTYGLYFCGNFEINHFYCADPPLIQIACGRVHIKEITMIVIAGINFTYSLSVVLISYTLIVVAVLRMRSADGRRKAFSTCGSHLTAVSMFYGTPIFMYLRRPTEESVEQGKMVAVFYTTVIPMLNPMIYSLRNKDVKEAVNKAITKTYVRQ [OR5M9]
plasma membrane surface immunostaining intensity (GPCR class: A (Olfactory)): 133 ± 54

MPNNSTALSLANVTYITMEIFIGLCAIVGNVLVICVVKLNPSLQTTTFYFIVSLALADIAVGVLVMPLAIVVSLGITIHFYSCLFMTCLLLIFTHASIMSLLAIAVDRYLRVKLTVRYKRVTTHRRIWLALGLCWLVSFLVGLTPMFGWNMKLTSEYHRNVTFLSCQFVSVMRMDYMVYFSFLTWIFIPLVVMCAIYLDIFYIIRNKLSLNLSNSKETGAFYGREFKTAKSLFLVLFLFALSWLPLSIINCIIYFNGEVPQLVLYMGILLSHANSMMNPIVYAYKIKKFKETYLLILKACVVCHPSDSLDTSIEKNSE [ADORA3]
plasma membrane surface immunostaining intensity (GPCR class: A): 5830 ± 110

MPNSTTVMEFLLMRFSDVWTLQILHSASFFMLYLVTLMGNILIVTVTTCDSSLHMPMYFFLRNLSILDACYISVTVPTSCVNSLLDSTTISKAGCVAQVFLVVFFVYVELLFLTIMAHDRYVAVCQPLHYPVIVNSRICIQMTLASLLSGLVYAGMHTGSTFQLPFCRSNVIHQFFCDIPSLLKLSCSDTFSNEVMIVVSALGVGGGCFIFIIRSYIHIFSTVLGFPRGADRTKAFSTCIPHILVVSVFLSSCSSVYLRPPAIPAATQDLILSGFYSIMPPLFNPIIYSLRNKQIKVAIKKIMKRIFYSENV [OR14C36]
plasma membrane surface immunostaining intensity (GPCR class: A (Olfactory)): 264 ± 80

MPPSISAFQAAYIGIEVLIALVSVPGNVLVIWAVKVNQALRDATFCFIVSLAVADVAVGALVIPLAILINIGPQTYFHTCLMVACPVLILTQSSILALLAIAVDRYLRVKIPLRYKMVVTPRRAAVAIAGCWILSFVVGLTPMFGWNNLSAVERAWAANGSMGEPVIKCEFEKVISMEYMVYFNFFVWVLPPLLLMVLIYLEVFYLIRKQLNKKVSASSGDPQKYYGKELKIAKSLALILFLFALSWLPLHILNCITLFCPSCHKPSILTYIAIFLTHGNSAMNPIVYAFRIQKFRVTFLKIWNDHFRCQPAPPIDEDLPEERPDD [ADORA1]
plasma membrane surface immunostaining intensity (GPCR class: A): 6412 ± 62
